Test results from US20170022281A1 (AbbVie / Abbott, published 2017).

B1: LFA102 (antibody, human IgG1, kappa, V domains shown)
VH: EVQLVESGGGLVQPGGSLRLSCAVSGFTFSSYGMSWVRQAPGKRLEWVATVSSGGTYTYYPDSVKGRFTISRDNSKNTLYLQMNSLRAEDTAMYYCARHRGNYYATYYYAMDYWGQGTLVTVSS
VL: DIVLTQSPDSLAVSLGERATINCKASKSVSTSGYTYMHWYQQKPGQPPKLLIYLASNRESGVPDRFSGSGSGTDFTLTISPVQAEDVATYYCQHSGELPPSFGQGTKLEIKR
notes: humanized IgG1 kappa comparator (WO 2008022295)
B2: chAb5 (antibody, human IgG1, kappa, V domains shown)
VH: QVQLQQPGAELVRPGTSVKLSCKASGYTFTSFWMHWVKQRPGQGLEWIGVIDPSDTYTNYNQKFKGKATLTVDTSSSTAYMQLSSLTSEDSAVYYCARGDYSNWFTYWGQGTLVTVSA
VL: DVVMTQTPLSLPVSLGDQASISCRSSQRLVHSNGNTYLHWYLQKPGQSPKLLIYKVSNRFSGVPDRFSGSGSGTDFTLKISRVEAEDLGVYFCSQSTHVPWTFGGGTKLEIKT
notes: chimeric, murine variable and human G1/kappa constant regions
B3: Ab49 (antibody, human IgG1, kappa, V domains shown)
VH: EVQLVQSGAEVKKPGASVKVSCKASGYTFTDYNIHWVRQAPGQGLEWIGYIYPNNDGTGYNQKFKSRATLTVDNSTSTAYMELRSLRSDDTAVYYCARGDGNYVGDMDYWGQGTTVTVSS
VL: DIQMTQSPSSLSASVGDRVTITCRASENIYSYLAWYQQKPGKAPKLLVYNAKTLAEGVPSRFSGSGSGTDFTLTISSLQPEDFATYYCQHHYATPFTFGQGTKLEIKR
notes: humanized from Ab8; G1; also called Ab3 HC.1a and Ab3 LC.1b
B4: Ab48 (antibody, human IgG1, kappa, V domains shown)
VH: EVQLVQSGAEVKKPGASVKVSCKASGYTFTDYNIHWVRQAPGQGLEWIGYIYPNNDGTGYNQKFKSRATLTVDNSTSTAYMELRSLRSDDTAVYYCARGDGNYVGDMDYWGQGTTVTVSS
VL: DIQMTQSPSSLSASVGDRVTITCRASENIYSYLAWYQQKPGKPPKLLVYNAKTLAEGVPSRFSGSGSGTDFTLTISSLQPEDFATYYCQHHYATPFTFGQGTKLEIKR
notes: humanized from Ab8; G1; also called Ab3 HC.1a and Ab3 LC.1a
B5: chAb8 (antibody, human IgG1, kappa, V domains shown)
VH: EVQLQQSGPELVKPGASVKISCKASGYTFTDYNIHWVKQSHGKSLEWIGYIYPNNDGTGYNQKFKSKATLTVDNSSSTAYMEVRSLTSEDSAVYYCARGDGNYVGDMDYWGQGTSVTVSS
VL: DIQMTQSPASLSASVGETVTITCRASENIYSYLAWYQQKQGKPPQLLVYNAKTLAEGVPSRFSGGGSGTQFSLKINSLQPEDFGSYYCQHHYATPFTFGSGTKLEIKT
notes: as for B2
B6: Ab39 (antibody, human IgG1, kappa, V domains shown)
VH: EVQLVQSGAEVKKPGSSVKVSCKASGYTFTSYWIHWVRQAPGQGLEWIGEIDPSDSYTNYNQKFKGRATLTVDKSSSTAYMELSSLRSEDTAVYYCARSFFTNWFAYWGQGTLVTVSS
VL: DVVMTQTPLSLSVTPGQPASISCRSSQSLVHSNGNTYLHWYLQKPGQSPQLLIYKVSNRFSGVPDRFSGSGSGTDFTLKISRVEAEDVGVYFCSQSTHVPFTFGGGTKVEIKR
notes: humanized from Ab7; G1; also called Ab4 HC.1a and Ab4 LC.1a
B7: Ab40 (antibody, human IgG1, kappa)
heavy: not shown
light: DVVMTQTPLSLSVTPGQPASISCRSSQSLVHSNGNTYLHWYLQKPGQSPQLLIYKVSNRFSGVPDRFSGSGSGTDFTLKISRVEAEDVGVYYCSQSTHVPFTFGGGTKVEIKRTVAAPSVFIFPPSDEQLKSGTASVVCLLNNFYPREAKVQWKVDNALQSGNSQESVTEQDSKDSTYSLSSTLTLSKADYEKHKVYACEVTHQGLSSPVTKSFNRGEC
notes: humanized from Ab7; G1; also called Ab4 HC.1a and Ab4 LC.1b

How the values were obtained:
[1] = target: T1, human PRLR (Biacore antigen) (human, UniProt P16471 25-234, limits assumed); experiment: SPR simultaneous binding; PRLR held by surface mAb Ab49
T1 construct: The construct injected over captured antibody is not described (a soluble form is likely); also called huPRLR
T1 sequence: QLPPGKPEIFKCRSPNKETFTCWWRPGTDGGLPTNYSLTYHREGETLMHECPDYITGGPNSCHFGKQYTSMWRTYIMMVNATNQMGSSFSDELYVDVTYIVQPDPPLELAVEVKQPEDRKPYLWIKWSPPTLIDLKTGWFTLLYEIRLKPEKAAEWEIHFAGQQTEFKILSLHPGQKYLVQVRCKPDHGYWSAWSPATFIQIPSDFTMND
Method: (§1) Running buffer was HBS-EP+ (10 mM Hepes, pH7.4, 150 mM NaCl, 3 mM EDTA, 0.05% surfactant). Assay was performed at 12° C. using Biacore T200 and CM5 sensor chips with anti-human IgG (Pierce) amine-coupled in all 4 flow cells to ˜2000 RU.
(§2) Separate test mAbs were captured in flowcells 2, 3 & 4 (flowcell 1 was reference, no test mAb). All 4 flowcells were then blocked by injection with isotype control mAb at 50 ug/ml. All 4 flowcells were then injected with antigen or buffer only (buffer only is for double referencing, done for each mAb pair individually). All 4 flowcells were then injected with 2nd test mAb at 10 ug/ml. All 4 flowcells were then regenerated with glycine, pH1.5.

[2] = target: T1, human PRLR (Biacore antigen); experiment: SPR simultaneous binding; PRLR held by surface mAb Ab40
Method: as §1, §2

[3] = target: T1, human PRLR (Biacore antigen); experiment: SPR simultaneous binding; PRLR held by surface mAb Ab39
Method: as §1, §2

[4] = target: T2, human PRLR ECD-Fc fusion protein (human, UniProt P16471 25-233); experiment: ELISA on ECD
T2 construct: not shown: Fc region (captured by goat anti-human Fc)
T2 sequence: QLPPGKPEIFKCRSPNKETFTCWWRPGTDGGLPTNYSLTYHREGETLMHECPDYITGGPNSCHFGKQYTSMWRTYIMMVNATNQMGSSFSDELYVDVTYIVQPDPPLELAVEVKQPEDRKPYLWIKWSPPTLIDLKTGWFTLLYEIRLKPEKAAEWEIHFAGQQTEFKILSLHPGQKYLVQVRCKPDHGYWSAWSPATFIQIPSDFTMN
Outline: (§3)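 PRLR was captured on blocked plates for 1 h, then incubated 1 h with serial antibody dilutions in PBS pH 7.4/0.05% Tween 20 containing 10% Superblock. HRP secondary and TMB gave signal read at 450 nm, and EC50 came from curve fitting.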

[5] = target: T3, cyno PRLR ECD-his6 protein (cyno); experiment: ELISA on ECD
T3 chain: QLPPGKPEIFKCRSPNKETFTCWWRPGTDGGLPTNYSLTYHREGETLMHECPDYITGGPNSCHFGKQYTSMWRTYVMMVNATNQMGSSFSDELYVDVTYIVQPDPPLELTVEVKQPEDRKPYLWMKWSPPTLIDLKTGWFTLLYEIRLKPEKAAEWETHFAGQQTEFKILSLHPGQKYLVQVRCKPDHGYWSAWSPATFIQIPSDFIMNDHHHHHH
Outline: as §3

[6] = target: T1, human PRLR (Biacore antigen); experiment: SPR simultaneous binding; PRLR held by surface mAb Ab48
Method: as §1, §2

[7] = target: T1, human PRLR (Biacore antigen); experiment: SPR simultaneous binding; PRLR held by surface mAb chAb8
Method: as §1, §2

[8] = target: T1, human PRLR (Biacore antigen); experiment: SPR simultaneous binding; PRLR held by surface mAb chAb5
Method: as §1, §2

[9] = target: T4, mouse PRLR on Baf3-mPRLR cells (mouse, UniProt Q08501 20-608); experiment: cell-based or functional assay
T4 sequence (looked up): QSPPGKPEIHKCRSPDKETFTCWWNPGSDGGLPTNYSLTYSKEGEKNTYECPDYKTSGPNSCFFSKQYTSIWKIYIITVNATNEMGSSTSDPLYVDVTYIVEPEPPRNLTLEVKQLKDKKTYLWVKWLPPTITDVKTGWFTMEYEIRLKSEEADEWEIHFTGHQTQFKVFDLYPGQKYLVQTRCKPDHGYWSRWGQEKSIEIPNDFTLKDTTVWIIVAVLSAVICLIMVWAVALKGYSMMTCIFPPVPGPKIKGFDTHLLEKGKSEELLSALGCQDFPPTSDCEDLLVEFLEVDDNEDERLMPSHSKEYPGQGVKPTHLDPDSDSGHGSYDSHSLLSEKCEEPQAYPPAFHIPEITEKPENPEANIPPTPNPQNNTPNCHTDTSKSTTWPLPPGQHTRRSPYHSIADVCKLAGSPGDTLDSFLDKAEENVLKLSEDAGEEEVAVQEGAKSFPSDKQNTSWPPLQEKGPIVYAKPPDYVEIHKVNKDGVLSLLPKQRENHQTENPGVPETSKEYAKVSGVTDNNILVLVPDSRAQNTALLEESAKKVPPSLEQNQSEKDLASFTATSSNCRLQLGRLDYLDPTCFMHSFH

[10] = target: T1, human PRLR (Biacore antigen); experiment: SPR simultaneous binding; PRLR held by surface mAb chAb7
Method: as §1, §2

[11] = target: T1, human PRLR (Biacore antigen); experiment: SPR simultaneous binding; PRLR held by surface mAb chAb6
Method: as §1, §2

[12] = target: T1, human PRLR (Biacore antigen); experiment: SPR simultaneous binding; PRLR held by surface mAb Ab21
Method: as §1, §2

Row | Binder | solution mAb binding, % of PRLR binding [1] [%] | solution mAb binding, % of PRLR binding [2] [%] | solution mAb binding, % of PRLR binding [3] [%] | EC50 [4] [nM] | EC50 [5] [nM] | solution mAb binding, % of PRLR binding [6] [%] | solution mAb binding, % of PRLR binding [7] [%] | solution mAb binding, % of PRLR binding [8] [%] | Baf3-mPRLR proliferation IC50 [9] [µg/mL] | solution mAb binding, % of PRLR binding [10] [%] | solution mAb binding, % of PRLR binding [11] [%] | solution mAb binding, % of PRLR binding [12] [%]
1 | B1 | 1 | 40 | 36 | 0.053 | 0.154 | -1 | 1 | 32 | > 30 | 39 | 26 | 21
2 | B2 | 7 | -2 | -2 | 0.098 | 0.103 | 8 | 7 | 0 | 2.51 | 0 | -1 | -1
3 | B3 | -1 | -3 | -2 | 0.0954 | 0.361 | 0 | -1 | 0 | > 30 | 0 | -2 | -1
4 | B4 | -2 | -2 | -2 | 0.0746 | 0.236 | -1 | -1 | 0 | > 30 | 0 | -2 | -1
5 | B5 | -1 | -2 | -2 | 0.08 | 0.191 | -1 | -1 | 0 | – | 0 | -1 | -1
6 | B6 | 2 | -2 | -2 | 0.18 | 0.46 | 2 | 1 | 0 | > 30 | 1 | 0 | -1
7 | B7 | 0 | -2 | -2 | 4.41 | 0.862 | 0 | 0 | 0 | > 30 | 1 | -1 | -1
